For 27 molecules, Kd results are on record in article PMC10786891, “Massively parallel profiling of RNA-targeting CRISPR-Cas13d”.

The chains are these.
T1: EsCas13d, nuclease-dead (Eubacterium siraeum, UniProt B0MS50, R295A;H300A;R849A;H854A)
T1 sequence: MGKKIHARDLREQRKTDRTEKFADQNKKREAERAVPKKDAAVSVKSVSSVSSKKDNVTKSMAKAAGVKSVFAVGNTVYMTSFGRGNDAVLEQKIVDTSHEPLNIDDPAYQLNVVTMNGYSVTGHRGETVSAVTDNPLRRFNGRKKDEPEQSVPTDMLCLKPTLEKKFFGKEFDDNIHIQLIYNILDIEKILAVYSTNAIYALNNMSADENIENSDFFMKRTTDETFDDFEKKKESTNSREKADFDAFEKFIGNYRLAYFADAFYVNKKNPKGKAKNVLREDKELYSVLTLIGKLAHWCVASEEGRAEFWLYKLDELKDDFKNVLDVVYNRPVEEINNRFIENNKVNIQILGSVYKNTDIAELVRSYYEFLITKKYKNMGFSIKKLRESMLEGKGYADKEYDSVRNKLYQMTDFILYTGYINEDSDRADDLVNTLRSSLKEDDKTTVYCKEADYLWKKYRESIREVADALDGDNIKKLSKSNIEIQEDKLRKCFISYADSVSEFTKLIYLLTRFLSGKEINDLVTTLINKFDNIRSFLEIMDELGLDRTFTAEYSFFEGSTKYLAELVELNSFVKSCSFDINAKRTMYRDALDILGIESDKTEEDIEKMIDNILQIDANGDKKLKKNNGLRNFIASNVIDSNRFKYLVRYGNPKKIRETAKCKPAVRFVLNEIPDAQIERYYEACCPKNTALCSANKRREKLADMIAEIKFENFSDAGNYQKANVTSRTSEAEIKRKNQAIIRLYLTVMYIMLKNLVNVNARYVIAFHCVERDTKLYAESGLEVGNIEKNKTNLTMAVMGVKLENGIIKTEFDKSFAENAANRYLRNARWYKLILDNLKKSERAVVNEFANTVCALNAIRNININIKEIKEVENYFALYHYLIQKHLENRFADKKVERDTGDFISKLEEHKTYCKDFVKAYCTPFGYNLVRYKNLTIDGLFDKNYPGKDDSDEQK

B1: target 1 G5A,C7A (mixed)
RNA 1: CACCCGUGCAAAAAUGCAGGGGUCUAAAACUGAGCGGAUAACCUCUCUAUGG
RNA 2: GGGAAUGGAUCCACAUCUACGAAUUCGUACCAUAGAGAGGUUAUACACUCACCGAGAUCGGAAGAGCACACGU
B2: target 1 A9C,G15A (mixed)
RNA 1: CACCCGUGCAAAAAUGCAGGGGUCUAAAACUGAGCGGAUAACCUCUCUAUGG
RNA 2: GGGAAUGGAUCCACAUCUACGAAUUCGUACCAUAGAAAGGUUCUCCGCUCACCGAGAUCGGAAGAGCACACGU
B3: target 1 U11A,A16G (mixed)
RNA 1: CACCCGUGCAAAAAUGCAGGGGUCUAAAACUGAGCGGAUAACCUCUCUAUGG
RNA 2: GGGAAUGGAUCCACAUCUACGAAUUCGUACCAUAGGGAGGAUAUCCGCUCACCGAGAUCGGAAGAGCACACGU
B4: target 2 MT 5'PFS AUA 3'PFS UCA (mixed)
RNA 1: CACCCGUGCAAAAUUGCAGGGGUCUAAAACCUUCUCCAAAUUGUUUCAUCCU
RNA 2: GGGAAUGGAUCCACAUCUACGAAUUCAUAAGGAUGAAACAAUUUGGAGAAGUCAAGAUCGGAAGAGCACACGU
B5: target 2 MT 5'PFS CUA 3'PFS CUU (mixed)
RNA 1: CACCCGUGCAAAAUUGCAGGGGUCUAAAACCUUCUCCAAAUUGUUUCAUCCU
RNA 2: GGGAAUGGAUCCACAUCUACGAAUUCCUAAGGAUGAAACAAUUUGGAGAAGCUUAGAUCGGAAGAGCACACGU
B6: target 2 MT 5'PFS CGG 3'PFS ACA (mixed)
RNA 1: CACCCGUGCAAAAUUGCAGGGGUCUAAAACCUUCUCCAAAUUGUUUCAUCCU
RNA 2: GGGAAUGGAUCCACAUCUACGAAUUCCGGAGGAUGAAACAAUUUGGAGAAGACAAGAUCGGAAGAGCACACGU
B7: target 2 MT 5'PFS AUA 3'PFS UCC (mixed)
RNA 1: CACCCGUGCAAAAUUGCAGGGGUCUAAAACCUUCUCCAAAUUGUUUCAUCCU
RNA 2: GGGAAUGGAUCCACAUCUACGAAUUCAUAAGGAUGAAACAAUUUGGAGAAGUCCAGAUCGGAAGAGCACACGU
B8: target 2 MT 5'PFS AUA 3'PFS UCG (mixed)
RNA 1: CACCCGUGCAAAAUUGCAGGGGUCUAAAACCUUCUCCAAAUUGUUUCAUCCU
RNA 2: GGGAAUGGAUCCACAUCUACGAAUUCAUAAGGAUGAAACAAUUUGGAGAAGUCGAGAUCGGAAGAGCACACGU
B9: target 2 MT 5'PFS GGC 3'PFS CCG (mixed)
RNA 1: CACCCGUGCAAAAUUGCAGGGGUCUAAAACCUUCUCCAAAUUGUUUCAUCCU
RNA 2: GGGAAUGGAUCCACAUCUACGAAUUCGGCAGGAUGAAACAAUUUGGAGAAGCCGAGAUCGGAAGAGCACACGU
B10: target 2 MT 5'PFS CAU 3'PFS UCU (mixed)
RNA 1: CACCCGUGCAAAAUUGCAGGGGUCUAAAACCUUCUCCAAAUUGUUUCAUCCU
RNA 2: GGGAAUGGAUCCACAUCUACGAAUUCCAUAGGAUGAAACAAUUUGGAGAAGUCUAGAUCGGAAGAGCACACGU
B11: target 2 MT 5'PFS GUC 3'PFS AUA (mixed)
RNA 1: CACCCGUGCAAAAUUGCAGGGGUCUAAAACCUUCUCCAAAUUGUUUCAUCCU
RNA 2: GGGAAUGGAUCCACAUCUACGAAUUCGUCAGGAUGAAACAAUUUGGAGAAGAUAAGAUCGGAAGAGCACACGU
B12: target 2 MT 5'PFS CGG 3'PFS ACC (mixed)
RNA 1: CACCCGUGCAAAAUUGCAGGGGUCUAAAACCUUCUCCAAAUUGUUUCAUCCU
RNA 2: GGGAAUGGAUCCACAUCUACGAAUUCCGGAGGAUGAAACAAUUUGGAGAAGACCAGAUCGGAAGAGCACACGU
B13: target 2 MT 5'PFS UUU 3'PFS AGA (mixed)
RNA 1: CACCCGUGCAAAAUUGCAGGGGUCUAAAACCUUCUCCAAAUUGUUUCAUCCU
RNA 2: GGGAAUGGAUCCACAUCUACGAAUUCUUUAGGAUGAAACAAUUUGGAGAAGAGAAGAUCGGAAGAGCACACGU
B14: target 2 MT 5'PFS GUC 3'PFS AUU (mixed)
RNA 1: CACCCGUGCAAAAUUGCAGGGGUCUAAAACCUUCUCCAAAUUGUUUCAUCCU
RNA 2: GGGAAUGGAUCCACAUCUACGAAUUCGUCAGGAUGAAACAAUUUGGAGAAGAUUAGAUCGGAAGAGCACACGU
B15: target 2 MT 5'PFS GAA 3'PFS UUC (mixed)
RNA 1: CACCCGUGCAAAAUUGCAGGGGUCUAAAACCUUCUCCAAAUUGUUUCAUCCU
RNA 2: GGGAAUGGAUCCACAUCUACGAAUUCGAAAGGAUGAAACAAUUUGGAGAAGUUCAGAUCGGAAGAGCACACGU
B16: target 2 MT 5'PFS GGC 3'PFS CCA (mixed)
RNA 1: CACCCGUGCAAAAUUGCAGGGGUCUAAAACCUUCUCCAAAUUGUUUCAUCCU
RNA 2: GGGAAUGGAUCCACAUCUACGAAUUCGGCAGGAUGAAACAAUUUGGAGAAGCCAAGAUCGGAAGAGCACACGU
B17: target 2 MT 5'PFS GGU 3'PFS UUU (mixed)
RNA 1: CACCCGUGCAAAAUUGCAGGGGUCUAAAACCUUCUCCAAAUUGUUUCAUCCU
RNA 2: GGGAAUGGAUCCACAUCUACGAAUUCGGUAGGAUGAAACAAUUUGGAGAAGUUUAGAUCGGAAGAGCACACGU
B18: target 2 MT 5'PFS UAG 3'PFS CGA (mixed)
RNA 1: CACCCGUGCAAAAUUGCAGGGGUCUAAAACCUUCUCCAAAUUGUUUCAUCCU
RNA 2: GGGAAUGGAUCCACAUCUACGAAUUCUAGAGGAUGAAACAAUUUGGAGAAGCGAAGAUCGGAAGAGCACACGU
B19: target 2 MT 5'PFS CGG 3'PFS ACU (mixed)
RNA 1: CACCCGUGCAAAAUUGCAGGGGUCUAAAACCUUCUCCAAAUUGUUUCAUCCU
RNA 2: GGGAAUGGAUCCACAUCUACGAAUUCCGGAGGAUGAAACAAUUUGGAGAAGACUAGAUCGGAAGAGCACACGU
B20: target 2 MT 5'PFS UAG 3'PFS CGG (mixed)
RNA 1: CACCCGUGCAAAAUUGCAGGGGUCUAAAACCUUCUCCAAAUUGUUUCAUCCU
RNA 2: GGGAAUGGAUCCACAUCUACGAAUUCUAGAGGAUGAAACAAUUUGGAGAAGCGGAGAUCGGAAGAGCACACGU
B21: target 2 MT 5'PFS GUC 3'PFS AUG (mixed)
RNA 1: CACCCGUGCAAAAUUGCAGGGGUCUAAAACCUUCUCCAAAUUGUUUCAUCCU
RNA 2: GGGAAUGGAUCCACAUCUACGAAUUCGUCAGGAUGAAACAAUUUGGAGAAGAUGAGAUCGGAAGAGCACACGU
B22: target 2 MT 5'PFS AGG 3'PFS CCU (mixed)
RNA 1: CACCCGUGCAAAAUUGCAGGGGUCUAAAACCUUCUCCAAAUUGUUUCAUCCU
RNA 2: GGGAAUGGAUCCACAUCUACGAAUUCAGGAGGAUGAAACAAUUUGGAGAAGCCUAGAUCGGAAGAGCACACGU
B23: target 2 MT 5'PFS GUC 3'PFS AUC (mixed)
RNA 1: CACCCGUGCAAAAUUGCAGGGGUCUAAAACCUUCUCCAAAUUGUUUCAUCCU
RNA 2: GGGAAUGGAUCCACAUCUACGAAUUCGUCAGGAUGAAACAAUUUGGAGAAGAUCAGAUCGGAAGAGCACACGU
B24: target 2 MT 5'PFS CUG 3'PFS UUU (mixed)
RNA 1: CACCCGUGCAAAAUUGCAGGGGUCUAAAACCUUCUCCAAAUUGUUUCAUCCU
RNA 2: GGGAAUGGAUCCACAUCUACGAAUUCCUGAGGAUGAAACAAUUUGGAGAAGUUUAGAUCGGAAGAGCACACGU
B25: target 2 MT 5'PFS CUG 3'PFS UUA (mixed)
RNA 1: CACCCGUGCAAAAUUGCAGGGGUCUAAAACCUUCUCCAAAUUGUUUCAUCCU
RNA 2: GGGAAUGGAUCCACAUCUACGAAUUCCUGAGGAUGAAACAAUUUGGAGAAGUUAAGAUCGGAAGAGCACACGU
B26: target 2 MT 5'PFS CGG 3'PFS ACG (mixed)
RNA 1: CACCCGUGCAAAAUUGCAGGGGUCUAAAACCUUCUCCAAAUUGUUUCAUCCU
RNA 2: GGGAAUGGAUCCACAUCUACGAAUUCCGGAGGAUGAAACAAUUUGGAGAAGACGAGAUCGGAAGAGCACACGU
B27: target 2 MT 5'PFS UUU 3'PFS AGG (mixed)
RNA 1: CACCCGUGCAAAAUUGCAGGGGUCUAAAACCUUCUCCAAAUUGUUUCAUCCU
RNA 2: GGGAAUGGAUCCACAUCUACGAAUUCUUUAGGAUGAAACAAUUUGGAGAAGAGGAGAUCGGAAGAGCACACGU

The target of this series is T1, EsCas13d, nuclease-dead. As to the kind of experiment: crRNA (strand 1, pre-loaded); Mg2+; 40 mM Tris-HCl pH 7.5, 150 mM NaCl, 6 mM MgCl2, 1 mM DTT, 0.1% Tween-20, 0.2 mg/ml BSA; 25 C; 10 min per concentration, then washed. Particulars: tags: His6-TwinStrep-SUMO cleaved; N-terminal SNAP kept (SNAP-Surface 488); label: 3' end held by stalled T7 RNA polymerase.
By Kd is commonly meant the constant that tells how readily two partners part at equilibrium. A high value points to weaker binding. On to B1, for which the Kd worked out at 10.3 ± 0.6 nM.

The molecule B2 registered a Kd of 35 ± 5 nM.

B3 displayed a Kd of 77 ± 15 nM.

Turning to B4, the Kd was 12.3 ± 2.6 nM.

In turn, B5 gave a Kd of 4 ± 0.8 nM.

Turning to B6, the Kd was determined as 5 ± 0.5 nM.

B7 displayed a Kd of 15.6 ± 2.1 nM.

For the molecule B8, the Kd amounted to 20 ± 6 nM.

Turning to B9, the Kd came out at 17.1 ± 3 nM.

Molecule B10 returned a Kd of 4.7 ± 0.7 nM.

With B11, binding was characterised by a dissociation constant (Kd) of 12.6 ± 1.6 nM.

With B12, binding was put at a Kd of 12 ± 1.9 nM.

Consider B13, for which binding was put at a Kd of 7.3 ± 0.8 nM.

As for B14, the affinity, expressed as Kd, was 11.2 ± 1.3 nM.

Take B15: the Kd was around 70 nM.

In turn, B16 came in with a Kd of 16.9 ± 2.7 nM.

Take B17: binding was put at a Kd of 68 ± 20 nM.

Regarding B18, binding was characterised by a dissociation constant (Kd) of 2.55 ± 0.33 nM.

For the molecule B19, the dissociation constant Kd stood at 6.8 ± 1.1 nM.

B20 came in with a Kd of 2.89 ± 0.35 nM.

Regarding B21, the Kd turned out to be 15.6 ± 1.9 nM.

For B22, the Kd came to 40 ± 15 nM.

For the molecule B23, the Kd was determined as 13.5 ± 1.2 nM.

In turn, B24 returned a Kd of 5.5 ± 0.5 nM.

B25 returned a Kd of 4.7 ± 0.4 nM.

With B26, the Kd stood at 4.05 ± 0.24 nM.

Turning to B27, the Kd is 4.9 ± 0.6 nM.
